# Measured values: PMC6700428, “Purification and characterization of an isoflavones conjugate hydrolyzing β-glucosidase (ICHG) from Cyamopsis tetragonoloba (guar)” (Biochemistry and Biophysics Reports, 2019)
# Columns and labels:
# [1] = biological target: Isoflavones conjugate hydrolyzing β-glucosidase (ICHG) from Cyamopsis tetragonoloba (guar) (Cyamopsis tetragonoloba (guar)); assay: SEC; Sephadex G-75 column (1.8 x 50 cm), 0.02 M sodium phosphate buffer pH 6, standard proteins of 66 to 124 kDa; native mass (~150 kDa) compared with the subunit mass on SDS-PAGE (~50 kDa)
# [2] = tested on: T1, Isoflavones conjugate hydrolyzing β-glucosidase (ICHG); assay: 4-nitrophenol release at […] nm, Lineweaver-Burk plot; format: biochemical, Cyamopsis tetragonoloba; details: optimum pH 4.5 and 37 °C; citrate phosphate buffer 0.1 M; PNPG 0.1-5 mM
# T1 construct: native, purified from dried seeds (ammonium sulphate, Sephadex G-75, DEAE-Sepharose); ~50 kDa subunit, ~150 kDa native, probable homotrimer; five internal peptides closest to Cicer arietinum beta-glucosidase
stoichiometry N [1],Km [2] [µM],Compound
3,,Isoflavones conjugate hydrolyzing β-glucosidase (ICHG) from Cyamopsis tetragonoloba (guar) (enzyme)
,860,O=[N+]([O-])c1ccc(O[C@@H]2O[C@H](CO)[C@@H](O)[C@H](O)[C@H]2O)cc1 [para nitrophenyl -β-D- glucopyranoside]
